# According to the DeepSol protein solubility set:
# Assay: soluble on expression in E. coli; label from the status in PepcDB or PDB records
row,Sequence,soluble on expression in E. coli
1,MPDGDFITLDRVEKVFDVRRKTGFLRSERRRVRAVDSLSFTVARGEMVGYIGPNGAGKSTTIKMLTGILTPSGGRLRVAGIDPSRERTRLAARIGVVFGQRTTLWWDLPLIDSYRLMHRMYRIPDGRYRENLDRCVELLELGDLLDVPVRQLSLGQRMRGDIAAALLHDPEVLYLDEPTIGLDVISKARVREFLRELNAERGTTVLLTTHDLQDIEQLCGRVMVIDHGRLMYDGPLAGLHEVGDSERTLVVDLARELPPIEAAPARVVKVEGPRQWLAFPASESAAPLVARIAAAYPLVDLSVREPDIEAVIAKMLQSMGDTPQPPPEQAEHVVSLEHHHHHH,soluble
2,MVMNQKNLFTRSALAAAIALISSNVSAAGFQLNEYSAAALGRAFSGEGAVADNASVGSRNPAAMTLFDRPSFSGGVIYIDPSVDITGTSPSGKSTDASNIAPSAWVPNLHFIMPLDEQWAIGASATSNYGLATEFNDDYVAGMLGGQTDLKTANLNLSAAYRLNDNFSFGLGFDAVYADAKIVRHLGEAGGGLLPANTEAARLEGTKWGYGWNTGILYEIDKENRYSFTYRSEVNIDFDGDYSNQLPVIFGGLGGKTVPGSLTLNLPAVWEVSGYNKVAPQWAIHYSMAYTTWSSFKELKATASNGDVLFDKHEGFRDAYRIALGTTYYYDDNWTFRTGIAFDDSPIPAGNRSISIPDQDRFWLSAGTTYAFNKNASVDVGIAYMKGQNVSITEKTPAPSNTTYEFNSKGSAMLYGVNFNYTF,not soluble
3,SNAMEHKIVHVGDIPVANDKPFTLFAGMNVLESRDLAMQICEHYVKVTDKLGIPYVFKASFDKANRSSVHSYRGPGLEEGMKIFQELKETFGVKIITDVHTEAQAQPVADVVDVIQLPAFLARQTDLVEAMAKTGAVINVKKPQFMSPGQVGNIVEKFAECGNDKVILCERGSCHGYDNLVVDMLGFGVMKQASNGSPIIFDVTHSLQMRDPSGAASGGRREQTVELAKAGLATGIAGLFIEAHPNPDKARCDGPSALPLDKLEPFLAQMKALDDLIKSFAHIDIR,soluble
4,MSLGNREILYKNLFYNAELFTCRFPELSAALGLDSEIGIKQFAERIPESYYLEEAKLKETDKKIFTARINGKYLHSKYNPISEAEKNISLDFFEDKKAKSSCVFCGLGLGYAQELYAKKYPKSSLIIIEPDLFVFFLFLQSRPLDDFFMHENLILLLGLYPKDVLDFFESKSFFDTPIFKIQSLIDVSSSWFSEFEALKKRRNEKTNLNKNTLKKFGKLWLKNFLKNIKQTEGLFGINKIENIFASCPALIIAAGPGLDDTINLVKENEDKFIIIAADTAVRACHRHGLKPDFILLMDAQYWNYLHLSDLDISDSILITESSVYPAVFRLKTRAKFLCTSMFPLAQYIEKLIGEKGKLVTGGSVATACWDFARILGCSEIIFAGLDLAFPDFQTHFKGSRFEEDVNAFSNRFFPSETASHLSLYSASPQLKEGYEGKVLSDKRMQMYAWWFESKIAEFPDIKTYNLLPRGLKIPNMPALSMEEFLLKAKASPLSKKIKIEKMSALFNLSSYKKEGSFSSPNLSSALKELSTDLEKTMKLAREGMDICLNLLDSLKTGKPLEDSIIKKVWKTEGHHHHHH,soluble
5,AYPHIFGNLGVFSLASWFSERDFLRFLNHHPLDKNSKVFIQVGTKEGDAVDDEFAPNMNQAYIDCTLHYYQSLLRTGHPMEHIDLHIMANEIHHEKYWANHFIEFLKFTLK,not soluble
6,MISLPIDLVLPDLREALVNRNEVILEAPPGAGKTTRVPLALLNESWLGDQKILMLEPRRLAARAAAERLASELGEKVGEIVGYRIRLESKVGPRTKIEVVTEGILARRLQDDPALDGVGVVIFDEYHLRNLHSDLALALCLSGRDLLRDDPPLKLLLMSAT,not soluble
7,MIVTEHLFAIEDQTECLISALLESDAVQNYKETKKAMYASAEVAQLQKAFLEAKSAFERVEAYGIHAPDFREKQRALRKAKRALDLNEIVANYRFAETNVQTLLDTIGLKIAQLISEDIKVDAGNPFFERGKKHSGCGGSCHAS,not soluble
8,MKQKKAWAIVKEVIEEADIVVEVVDARDPIGTRNKKLERMVLESGKKLLLVMNKADLVPKEWAEEYKRKSEIPVVFISARERKGTGILRRELKKIAKMINKERVKVALIGYPNVGKSTIINVLKGKHSVGTAPIPGYTKGKQMIRLTKKIWLLDTPGVVPIDDFDELVIKGGFPADKIREPVKPALKLIRRILETRKEALTEKFNITEFEDEEDILRKIGERRGIIREGGVVDIEETARWFLREWQTGRFTLFSTEEKREEEYIESFDEILEIIKEQNLTDPRMIIWKFGNILEDYLGAERRFGAIKVGEFMIAIATGFKKCPNAIKFVERITRKNAVAAECFGKKWKGIVAILE,soluble
9,ATRRRSLSCYVWIATFGMRYTHEFNKVIRDYVRGHASQIRKRLLPKALEVFASHRIAGDCVVVATGAPPELVREILALVADQQEVVPVIGSSIVPRLGAIIVARHCHHEEKMRMLREQGYGDVAVAYSDSTADLPLLMAAKVPVVVNPKPKREKLFRRVLQP,not soluble
10,PITLVKDILSKPPITAHSNISIMEAAKILIKHNINHLPIVDEHGKLVGIITSWDIAKALAQNKKTIEEIMTRNVITAHEDEPVDHVAIKMSKYNISGVPVVDDYRRVVGIVTSEDISRLFGGKK,soluble
11,MAHHHHHHMSSVINYEKFEKIDISSSDDDNKKKLNPHLTKLDNKDKVVIGPNGLTILKNNNDEKIKHDKYNNTSKNVEEIKDKNDEYKTIYNETNNEILNNKNDNIHVQNMNNYVADDKKYKDMFINGAVVPYEYIWNQSIHYINAFICLPLNCKAKNLIVDIKEDKLIVKIKNYKCGIIYNNNNNNNKTNQHNTQSNSFHDNVEILVDKKFPFKINTDEDTQIWEIKNMQINWYTLFNLSNEINNQNVHYLFEDYNMLDKQETFLYISVKKINEIENAYIWWSTLFKNEHPIKIENLPSRSSTNKAKKTMNSFKTAWDEAHEIFKKNISMKQLPFRIDSS,soluble
12,MELFKEISQEESNKDSKENDNINEEIDIEQLKDKVKDLELQLEYEIKQHNVEIAEREETIKILETRIQELEHYKNDITEKDEAIINMSEKLLILSNKYDILVKESKLQEEELKHFKNKKKYRNDKTNEYILGLRNQNDEIKKEHELLNEKYAQLVKEYAILQNSCKVLNEQLENNQKNMELLIKEKSNNLDEKTAIKILNIGSKELIHKRVHNKNVDELSNLKLELEYKDMILNKLMRKQVSEGKTIKVEYTNNENKFENEKKLGEMYQKYLDSVCDNDNLKKEINKLHNKINDMKVEEEEHLKTISILRDYINKMYKEDVNINQFDDLINNILKDNTSLNEELSKQKRKNMADIYYFTKELQIVKKDKFKIIEKFDSKKVTNIPHLYEPLNLTLSKENNKREISDDDDDNKGPKGDLNFLKKNSDINCSESNIKKPLKTNDLVHIYMQDYMNNVQNKA,not soluble
13,MSTMKDEIEKVPASQYKGQDFQPLAEKSAIAHAKKYREEYEKLGEQFFKDNFSLNVKATNVVGSGDGAEVYVHCDDHDIVFNASIPFDMESIHEEGSMRSNDNGDTMSMMVGTVLSGFEYRANKEKMDNLEKYLKDKEDKYHYTGFTDEAITKTQNIGYQNNYFYITTSSTKLRDYRKHFEPLIKESDDDFKKHMKQLKSKKDTYINTEITTTLFSTLDEYDEKIIRKNTLSMAKEMRKEPSIPHNFTFHLLFSNNKLKINDPNISNNQINEYRVFDHDGFKNLEHHHHHH,soluble
14,MRKIKLIAVVGPTAVGKTALGIELAKTFNGEIISGDSQQVYQKLDIGTAKASKEEQEQAYHHLIDVREVNENYSVYDFVKEAKVAIDTIISKGKIPIIVGGTGLYLQSLFEGYHLGGEVNQETLMAYREKLESLSDEDLFEKLTEQSIIIPQVNRRRAIRALELAKFGNDLQNSESPYDVLLIGLNDDRQVLYDRINRRVDLMMDNGLLDEAKWLYDNYPSVQASKGIGYKELFPYFSKQIPLEEAVDKLKQNTRRFAKRQLTWFRNRMNVEFIMVGEENYQQKIKRKVSDFLSSKLEHHHHHH,soluble
15,ADFDYVVVGAGNAGNVVAARLTEDPDVSVLVLEAGVSDENVLGAEAPLLAPGLVPNSIFDWNYTTTAQAGYNGRSIAYPRGRMLGGSSSVHYMVMMRGSTEDFDRYAAVTGDEGWNWDNIQQFVRKNEMVVPPADNHNTSGEFIPAVHGTNGSVSISLPGFPTPLDDRVLATTQEQSEEFFFNPDMGTGHPLGISWSIASVGNGQRSSSSTAYLRPAQSRPNLSVLINAQVTKLVNSGTTNGLPAFRCVEYAEQEGAPTTTVCAKKEVVLSAGSVGTPILLQLSGIGDENDLSSVGIDTIVNNPSVGRNLSDHLLLPAAFFVNSNQTFDNIFRDSSEFNVDLDQWTNTRTGPLTALIANHLAWLRLPSNSSIFQTFPDPAAGPNSAHWETIFSNQWFHPAIPRPDTGSFMSVTNALISPVARGDIKLATSNPFDKPLINPQYLSTEFDIFTMIQAVKSNLRFLSGQAWADFVIRPFDPRLRDPTDDAAIESYIRDNANTIFHPVGTASMSPRGASWGVVDPDLKVKGVDGLRIVDGSILPFAPNAHTQGPIYLVGKQGADLIKADQ,soluble
16,MGSDKIHHHHHHMIGFDYGTSNCGVATMRNGQPHIIPLLGNESYIASNLYAPSRDVIANWLSQQLDSPQQANFIAERKAQLQKGQAALRELKFDGISSELLFGKSALAQYLEDPEEGYYIKSPKSFLGASGLATAQIQFFEDIVACMMSNVKNLTEQALQKEVTQTVIGRPINFQGLHGEESNRQAISVLTNAAKRVGFKDVEFQYEPVAAGFEFESSLTKETRVLVVDIGGGTSDCSMLLMSPDFTDNDNRNDHLLAHTGVRVAGNDFDIQLALQGIMPSFGMNSLLKTGKPMPTSSFYQALAINNINEQTEFYSAKNRRNLVQLSRDAKETAIIERLVAVHDHKLSYQLVNAAEQAKIALTEQSKQTIDLSDVTDGLCAEVTKETLRSANKRTLESIANIMQSAVQQAQCQPDVIFVTGGTAKSPVLSEFLQQQMPNVPIVVGDHFGSVTSGLARWAEKIYQ,not soluble
17,MGSDKIHHHHHHMNKKIIEKEILSKVIKKRKEGSNKTNYGRILLICGSQSFGGAAIMASKAVVYSGAGLVTLASDMINRAPFLSSVSEAMFLDYTRTDKLINSIAKSDVILIGSGLEDSDFSFSLLKLVFQNAKTNQLLVLDGTALSMIGKRNLNIPKKPTIIMTPHQGEWQRVSGLSISEQVPVQNYKKMVDLNIDFLVLKSSATEIYALQNPREYKELNIGGPFQAIGGMGDTLAGLIAGFLGQFKNDQISVIQAATYLHSYIARNLSQKQYVTLPTRISEQIPTEMKKIIQTSKY,not soluble
18,MGSDKIHHHHHHMNYTDTLKSVDLVLATGEVPLIIGESGIGKTALAKELAQQNQWSLVIINGNLLKEGEIGGLPTIESYVFSGPEAVNPLAATAAKTVGNEQGILQEKKSTVYAVHHKLREIDEAIARGQTVLLFIDEINRCEHTVQQELMNLILNREINGYILPEGVKILAAMNPSSKYGSDFDYQVVDMDAAQENRFVWLFMKPDHKQWIDWAIGAGIEPKVIEFISTFPDYLHKINEDDLRATPRSYERISSSYKIYQENKDSIPRSVFLNVVKGNVGRVIAEEFVNFAEADYSPLIAYDDIFSGTSLPESLRDKVKEESHTRLYLSARNILQTLESHLSKTPANAPDHAQSSMDRLVAFLKLYPVDLKIGIMKDIRSSYPEIYRQAIENEGFVDSYFESYGSLR,not soluble
19,MNFEGKIALVTGASRGIGRAIAETLAARGAKVIGTATSENGAQAISDYLGANGKGLMLNVTDPASIESVLEKIRAEFGEVDILVNNAGITRDNLLMRMKDEEWNDIIETNLSSVFRLSKAVMRAMMKKRHGRIITIGSVVGTMGNGGQANYAAAKAGLIGFSKSLAREVASRGITVNVVAPGFIETDMTRALSDDQRAGILAQVPAGRLGGAQEIANAVAFLASDEAAYITGETLHVNGGMYMV,soluble
20,MFCSSNIPIRLRDKKENNSIIVLPGGSEKSAAGQWRPHLPT,not soluble
